Biological target: nsp12 (RNA-dependent RNA polymerase);nsp7;nsp8 (SARS-CoV-2;SARS-CoV-2;SARS-CoV-2, UniProt P0DTD1;P0DTD1;P0DTD1 4393-5324;3860-3942;3943-4140, ||)
Assay: cryo-EM structure (2.5 A)
Settings: protein: recombinant;recombinant;recombinant; tags: C-terminal TEV site-double StrepII on the nsp5-nsp7-nsp8-nsp12 polyprotein;;; copies: 1;1;2

B1: primer:template RNA duplex (dsRNA)
RNA 1: CAGUGCUAUGUGAGAUUAAGUUAU
RNA 2: UUUUUCAUAACUUAAUCUCACAUAGCACUG
binding result: binds

Source: article PMC7896311, “Structure of the SARS-CoV-2 RNA-dependent RNA polymerase in the presence of favipiravir-RTP”
